{"source": "paper PMC9584609", "molecular_target": "T1, Kir2.1 tagged with mVenus and PAmCherry (human), P63252", "T1 chain": "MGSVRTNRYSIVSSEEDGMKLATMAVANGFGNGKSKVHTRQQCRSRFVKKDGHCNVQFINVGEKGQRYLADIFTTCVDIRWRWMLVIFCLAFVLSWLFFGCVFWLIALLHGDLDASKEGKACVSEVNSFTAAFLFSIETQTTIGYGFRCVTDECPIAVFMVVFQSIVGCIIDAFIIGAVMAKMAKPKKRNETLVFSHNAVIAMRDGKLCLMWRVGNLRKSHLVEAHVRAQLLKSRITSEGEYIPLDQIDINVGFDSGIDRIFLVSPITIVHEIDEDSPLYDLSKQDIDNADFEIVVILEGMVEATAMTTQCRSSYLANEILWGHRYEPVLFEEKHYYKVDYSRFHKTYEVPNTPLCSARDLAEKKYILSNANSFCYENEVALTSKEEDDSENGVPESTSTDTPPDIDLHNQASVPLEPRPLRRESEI", "assay": "native gel or EMSA; high-resolution clear native electrophoresis (hrCNE); lysate of transfected HEK293T cells in 0.1 M sodium phosphate with 0.5% digitonin or 20 mM DDM; 4-14% acrylamide gradient gel run at 4 °C; mVenus fluorescence scanned; VGLUTs and sialin with and without PNGaseF", "settings": "remark: other sources report otherwise", "data": [{"binder": "Kir2.1 tagged with mVenus and PAmCherry, P63252 1-427 (natural protein) MGSVRTNRYSIVSSEEDGMKLATMAVANGFGNGKSKVHTRQQCRSRFVKKDGHCNVQFINVGEKGQRYLADIFTTCVDIRWRWMLVIFCLAFVLSWLFFGCVFWLIALLHGDLDASKEGKACVSEVNSFTAAFLFSIETQTTIGYGFRCVTDECPIAVFMVVFQSIVGCIIDAFIIGAVMAKMAKPKKRNETLVFSHNAVIAMRDGKLCLMWRVGNLRKSHLVEAHVRAQLLKSRITSEGEYIPLDQIDINVGFDSGIDRIFLVSPITIVHEIDEDSPLYDLSKQDIDNADFEIVVILEGMVEATAMTTQCRSSYLANEILWGHRYEPVLFEEKHYYKVDYSRFHKTYEVPNTPLCSARDLAEKKYILSNANSFCYENEVALTSKEEDDSENGVPESTSTDTPPDIDLHNQASVPLEPRPLRRESEI", "values": [{"measurement": "stoichiometry N", "result": 4}]}]}
